T1: EsCas13d, nuclease-dead (Eubacterium siraeum, UniProt B0MS50, R295A;H300A;R849A;H854A)
T1 sequence: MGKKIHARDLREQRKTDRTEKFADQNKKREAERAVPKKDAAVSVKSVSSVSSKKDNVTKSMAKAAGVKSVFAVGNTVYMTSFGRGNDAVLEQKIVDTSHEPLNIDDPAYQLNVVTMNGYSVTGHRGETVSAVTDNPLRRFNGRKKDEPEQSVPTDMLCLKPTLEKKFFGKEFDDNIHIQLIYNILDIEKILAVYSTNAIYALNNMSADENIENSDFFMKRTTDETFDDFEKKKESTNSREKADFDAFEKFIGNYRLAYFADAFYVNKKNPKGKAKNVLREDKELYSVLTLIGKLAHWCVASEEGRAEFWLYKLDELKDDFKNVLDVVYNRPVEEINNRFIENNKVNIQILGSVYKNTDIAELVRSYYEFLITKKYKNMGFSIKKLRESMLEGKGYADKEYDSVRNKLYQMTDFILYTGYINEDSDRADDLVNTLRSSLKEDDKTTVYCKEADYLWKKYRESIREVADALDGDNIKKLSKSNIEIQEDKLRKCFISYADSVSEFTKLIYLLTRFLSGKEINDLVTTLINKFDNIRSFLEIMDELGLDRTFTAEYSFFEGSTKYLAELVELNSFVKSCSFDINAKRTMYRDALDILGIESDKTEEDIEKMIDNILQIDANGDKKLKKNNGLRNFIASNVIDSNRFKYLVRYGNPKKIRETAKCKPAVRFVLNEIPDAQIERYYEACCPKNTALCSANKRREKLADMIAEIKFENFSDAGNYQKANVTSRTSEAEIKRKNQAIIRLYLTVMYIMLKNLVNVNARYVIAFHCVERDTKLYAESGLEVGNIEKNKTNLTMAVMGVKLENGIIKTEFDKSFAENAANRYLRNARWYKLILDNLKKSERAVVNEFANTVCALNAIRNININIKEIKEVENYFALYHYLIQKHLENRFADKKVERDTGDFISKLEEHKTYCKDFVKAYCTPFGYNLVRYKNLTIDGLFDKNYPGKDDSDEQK

B1: target 1 C7U,G12A (mixed)
RNA 1: CACCCGUGCAAAAAUGCAGGGGUCUAAAACUGAGCGGAUAACCUCUCUAUGG
RNA 2: GGGAAUGGAUCCACAUCUACGAAUUCGUACCAUAGAGAGAUUAUUCGCUCACCGAGAUCGGAAGAGCACACGU
B2: target 1 G5A,C6U (mixed)
RNA 1: CACCCGUGCAAAAAUGCAGGGGUCUAAAACUGAGCGGAUAACCUCUCUAUGG
RNA 2: GGGAAUGGAUCCACAUCUACGAAUUCGUACCAUAGAGAGGUUAUCUACUCACCGAGAUCGGAAGAGCACACGU
B3: target 1 A16G,C21A (mixed)
RNA 1: CACCCGUGCAAAAAUGCAGGGGUCUAAAACUGAGCGGAUAACCUCUCUAUGG
RNA 2: GGGAAUGGAUCCACAUCUACGAAUUCGUACAAUAGGGAGGUUAUCCGCUCACCGAGAUCGGAAGAGCACACGU
B4: target 1 insG 3' of 18,insU 3' of 2 (mixed)
RNA 1: CACCCGUGCAAAAAUGCAGGGGUCUAAAACUGAGCGGAUAACCUCUCUAUGG
RNA 2: GGGAAUGGAUCCACAUCUACGAAUUCGUACCAUAGGAGAGGUUAUCCGCUCUACCGAGAUCGGAAGAGCACACGU
B5: target 1 C6A,C22A (mixed)
RNA 1: CACCCGUGCAAAAAUGCAGGGGUCUAAAACUGAGCGGAUAACCUCUCUAUGG
RNA 2: GGGAAUGGAUCCACAUCUACGAAUUCGUAACAUAGAGAGGUUAUCAGCUCACCGAGAUCGGAAGAGCACACGU
B6: target 1 insC 3' of 14,insG 3' of 8 (mixed)
RNA 1: CACCCGUGCAAAAAUGCAGGGGUCUAAAACUGAGCGGAUAACCUCUCUAUGG
RNA 2: GGGAAUGGAUCCACAUCUACGAAUUCGUACCAUAGAGACGGUUAUGCCGCUCACCGAGAUCGGAAGAGCACACGU
B7: target 1 del2,del13 (mixed)
RNA 1: CACCCGUGCAAAAAUGCAGGGGUCUAAAACUGAGCGGAUAACCUCUCUAUGG
RNA 2: GGGAAUGGAUCCACAUCUACGAAUUCGUACCAUAGAGAGUUAUCCGCUACCGAGAUCGGAAGAGCACACGU
B8: target 1 insA 3' of 13,insA 3' of 7 (mixed)
RNA 1: CACCCGUGCAAAAAUGCAGGGGUCUAAAACUGAGCGGAUAACCUCUCUAUGG
RNA 2: GGGAAUGGAUCCACAUCUACGAAUUCGUACCAUAGAGAGAGUUAUCACGCUCACCGAGAUCGGAAGAGCACACGU
B9: target 1 U8G,A9C (mixed)
RNA 1: CACCCGUGCAAAAAUGCAGGGGUCUAAAACUGAGCGGAUAACCUCUCUAUGG
RNA 2: GGGAAUGGAUCCACAUCUACGAAUUCGUACCAUAGAGAGGUUCGCCGCUCACCGAGAUCGGAAGAGCACACGU
B10: target 1 insC 3' of 11,insC 3' of 9 (mixed)
RNA 1: CACCCGUGCAAAAAUGCAGGGGUCUAAAACUGAGCGGAUAACCUCUCUAUGG
RNA 2: GGGAAUGGAUCCACAUCUACGAAUUCGUACCAUAGAGAGGUCUACUCCGCUCACCGAGAUCGGAAGAGCACACGU
B11: target 1 insA 3' of 21,insU 3' of 14 (mixed)
RNA 1: CACCCGUGCAAAAAUGCAGGGGUCUAAAACUGAGCGGAUAACCUCUCUAUGG
RNA 2: GGGAAUGGAUCCACAUCUACGAAUUCGUACCAAUAGAGAUGGUUAUCCGCUCACCGAGAUCGGAAGAGCACACGU
B12: target 1 C4A,G12C (mixed)
RNA 1: CACCCGUGCAAAAAUGCAGGGGUCUAAAACUGAGCGGAUAACCUCUCUAUGG
RNA 2: GGGAAUGGAUCCACAUCUACGAAUUCGUACCAUAGAGAGCUUAUCCGAUCACCGAGAUCGGAAGAGCACACGU
B13: target 1 G13A,G17A (mixed)
RNA 1: CACCCGUGCAAAAAUGCAGGGGUCUAAAACUGAGCGGAUAACCUCUCUAUGG
RNA 2: GGGAAUGGAUCCACAUCUACGAAUUCGUACCAUAAAGAAGUUAUCCGCUCACCGAGAUCGGAAGAGCACACGU
B14: target 1 insA 3' of 3 (mixed)
RNA 1: CACCCGUGCAAAAAUGCAGGGGUCUAAAACUGAGCGGAUAACCUCUCUAUGG
RNA 2: GGGAAUGGAUCCACAUCUACGAAUUCGUACCAUAGAGAGGUUAUCCGCUACACCGAGAUCGGAAGAGCACACGU
B15: target 1 C7G,U10A (mixed)
RNA 1: CACCCGUGCAAAAAUGCAGGGGUCUAAAACUGAGCGGAUAACCUCUCUAUGG
RNA 2: GGGAAUGGAUCCACAUCUACGAAUUCGUACCAUAGAGAGGUAAUGCGCUCACCGAGAUCGGAAGAGCACACGU
B16: target 1 del19 (mixed)
RNA 1: CACCCGUGCAAAAAUGCAGGGGUCUAAAACUGAGCGGAUAACCUCUCUAUGG
RNA 2: GGGAAUGGAUCCACAUCUACGAAUUCGUACCAAGAGAGGUUAUCCGCUCACCGAGAUCGGAAGAGCACACGU
B17: target 1 C7G,G15U (mixed)
RNA 1: CACCCGUGCAAAAAUGCAGGGGUCUAAAACUGAGCGGAUAACCUCUCUAUGG
RNA 2: GGGAAUGGAUCCACAUCUACGAAUUCGUACCAUAGAUAGGUUAUGCGCUCACCGAGAUCGGAAGAGCACACGU
B18: target 1 del1,del13 (mixed)
RNA 1: CACCCGUGCAAAAAUGCAGGGGUCUAAAACUGAGCGGAUAACCUCUCUAUGG
RNA 2: GGGAAUGGAUCCACAUCUACGAAUUCGUACCAUAGAGAGUUAUCCGCUCCCGAGAUCGGAAGAGCACACGU
B19: target 1 U3C,C7U (mixed)
RNA 1: CACCCGUGCAAAAAUGCAGGGGUCUAAAACUGAGCGGAUAACCUCUCUAUGG
RNA 2: GGGAAUGGAUCCACAUCUACGAAUUCGUACCAUAGAGAGGUUAUUCGCCCACCGAGAUCGGAAGAGCACACGU
B20: target 1 insU 3' of 9,insA 3' of 3 (mixed)
RNA 1: CACCCGUGCAAAAAUGCAGGGGUCUAAAACUGAGCGGAUAACCUCUCUAUGG
RNA 2: GGGAAUGGAUCCACAUCUACGAAUUCGUACCAUAGAGAGGUUAUUCCGCUACACCGAGAUCGGAAGAGCACACGU
B21: target 1 C7A,A9C (mixed)
RNA 1: CACCCGUGCAAAAAUGCAGGGGUCUAAAACUGAGCGGAUAACCUCUCUAUGG
RNA 2: GGGAAUGGAUCCACAUCUACGAAUUCGUACCAUAGAGAGGUUCUACGCUCACCGAGAUCGGAAGAGCACACGU
B22: target 1 insG 3' of 16,insA 3' of 11 (mixed)
RNA 1: CACCCGUGCAAAAAUGCAGGGGUCUAAAACUGAGCGGAUAACCUCUCUAUGG
RNA 2: GGGAAUGGAUCCACAUCUACGAAUUCGUACCAUAGAGGAGGUAUAUCCGCUCACCGAGAUCGGAAGAGCACACGU
B23: target 1 insA 3' of 10,insG 3' of 8 (mixed)
RNA 1: CACCCGUGCAAAAAUGCAGGGGUCUAAAACUGAGCGGAUAACCUCUCUAUGG
RNA 2: GGGAAUGGAUCCACAUCUACGAAUUCGUACCAUAGAGAGGUUAAUGCCGCUCACCGAGAUCGGAAGAGCACACGU
B24: target 1 insU 3' of 21,insC 3' of 13 (mixed)
RNA 1: CACCCGUGCAAAAAUGCAGGGGUCUAAAACUGAGCGGAUAACCUCUCUAUGG
RNA 2: GGGAAUGGAUCCACAUCUACGAAUUCGUACCUAUAGAGAGCGUUAUCCGCUCACCGAGAUCGGAAGAGCACACGU
B25: target 1 insG 3' of 14,insU 3' of 9 (mixed)
RNA 1: CACCCGUGCAAAAAUGCAGGGGUCUAAAACUGAGCGGAUAACCUCUCUAUGG
RNA 2: GGGAAUGGAUCCACAUCUACGAAUUCGUACCAUAGAGAGGGUUAUUCCGCUCACCGAGAUCGGAAGAGCACACGU
B26: target 1 insG 3' of 6,insG 3' of 1 (mixed)
RNA 1: CACCCGUGCAAAAAUGCAGGGGUCUAAAACUGAGCGGAUAACCUCUCUAUGG
RNA 2: GGGAAUGGAUCCACAUCUACGAAUUCGUACCAUAGAGAGGUUAUCCGGCUCAGCCGAGAUCGGAAGAGCACACGU
B27: target 1 A18U,U19C (mixed)
RNA 1: CACCCGUGCAAAAAUGCAGGGGUCUAAAACUGAGCGGAUAACCUCUCUAUGG
RNA 2: GGGAAUGGAUCCACAUCUACGAAUUCGUACCACUGAGAGGUUAUCCGCUCACCGAGAUCGGAAGAGCACACGU

In paper PMC10786891, “Massively parallel profiling of RNA-targeting CRISPR-Cas13d” one finds Kd data, which are given here for 27 molecules.

What is called Kd is the free concentration of one partner at which half of the binding sites on the other are occupied at equilibrium, for simple one-to-one binding. Read a high Kd as weaker binding.

The data set addresses T1, EsCas13d, nuclease-dead. As to the kind of experiment: crRNA (strand 1, pre-loaded); Mg2+; 40 mM Tris-HCl pH 7.5, 150 mM NaCl, 6 mM MgCl2, 1 mM DTT, 0.1% Tween-20, 0.2 mg/ml BSA; 25 C; 10 min per concentration, then washed. The settings on record: tags: His6-TwinStrep-SUMO cleaved; N-terminal SNAP kept (SNAP-Surface 488); label: 3' end held by stalled T7 RNA polymerase.
B1 displayed a Kd of 6.9 ± 0.4 nM.

B2 gave a Kd of 13.1 ± 0.8 nM.

Turning to B3, binding was put at a Kd of 48 ± 11 nM.

Molecule B4 came in with a Kd of 84 ± 26 nM.

With B5, the Kd worked out at 10.5 ± 0.6 nM.

B6 came in with a Kd of 65 ± 11 nM.

The molecule B7 registered a Kd of 11.7 ± 0.4 nM.

The molecule B8 showed a Kd of 4.06 ± 0.21 nM.

Take B9: the affinity, expressed as Kd, was 11 ± 0.6 nM.

With B10, the Kd amounted to 29.4 ± 2.5 nM.

Consider B11, for which binding was characterised by a dissociation constant (Kd) of 49 ± 11 nM.

The molecule B12 returned a Kd of 31 ± 8 nM.

B13: binding was characterised by a dissociation constant (Kd) of 66 ± 19 nM.

As to B14, the affinity, expressed as Kd, was 8.8 ± 0.4 nM.

In turn, B15 gave a Kd of 11.7 ± 0.5 nM.

As for B16, binding was characterised by a dissociation constant (Kd) of 26.4 ± 2.2 nM.

Regarding B17, binding was characterised by a dissociation constant (Kd) of 30 ± 4 nM.

As to B18, the affinity, expressed as Kd, was 25 ± 4 nM.

In turn, B19 came in with a Kd of 19.6 ± 2.2 nM.

Turning to B20, the Kd was 13.1 ± 0.7 nM.

Turning to B21, the Kd was 13.6 ± 0.9 nM.

As for B22, the Kd amounted to 19.7 ± 1 nM.

Molecule B23 gave a Kd of 10.1 ± 0.5 nM.

In turn, B24 displayed a Kd of 32 ± 4 nM.

Molecule B25 gave a Kd of 81 ± 28 nM.

Molecule B26 gave a Kd of 5.7 ± 0.4 nM.

Molecule B27 displayed a dissociation constant (Kd) of 64 ± 16 nM.
